Experimental data from paper PMC5316894, “Cationic amino acid transporters play key roles in the survival and transmission of apicomplexan parasites” (Nature Communications, 2017).

B1: TgNPT1 (TgNPT1-HA) (Toxoplasma gondii ME49) (protein)
chain: MAGLLSSCCGRVYALLPDSAHPSAQQKTPFGVNRYVLLVIYMIYALLTSSVYFGWRSMSAMLFKSGQFSWVCTGESADTSPEEGETDYLCALQDTKVQSLFTIAMACHFTCSAVAGYLLDTVGPKAVALLGQTFNALAWILLAFSGPNFRSVYPAFVFMGAGADVSVYPTLLIVNLFPGSTALIMATLGACISLSFFVPLVLRTMWESTGISFEAVCIGYAVAGPILCAVVAFFFIPFKAFKGVDNFSACVEAEKLANSPTAQSSPKAVDSPPCDEGASSRGRLAVSHNTERTAPDDEQEKDNTERISLSDLACDPRFKKQKVSFSSQAFTFLYFGICLYFTVCGWVMAYYQEAAGRFLCNDAEYTLEILTPLSTIPCLLFGVVINRIGIMPVILMLNTIGLLTYVCVVAAESVVAQYFSVIFFFMYISIFTTQMYVFVESTFDSAHFGKLIGVASLIGGLLSLISNVLYGDVTVGMLNGDTRPVVIALLAVIILMYPILLAMRTKRNRKKQMEQEDIRSRVLELKAAHAADAA
notes: full ORF from RH cDNA, C-terminal HA tag, cRNA in Xenopus laevis oocytes (pGHJ-HA); calculated 58 kDa, runs at ~40 kDa in parasites; 12 predicted TM domains
B2: PbNPT1 (PbNPT1-HA) (Plasmodium berghei ANKA) (protein)
chain: MNESNCTKIVNFLKGMRLKTNPNLPGAKQKTPLNIHRFYLLLIIIIYTATSACIYFDWTSIRNLLLNVGKYEHLNISKYADITLSPQYKKINNLYPMTLAIHFTMSVFCGFLYDHIGPKFTAIIGQGFNILSWIFLSIDTTKIDTTLIGFIFLGLGADTAFIPILTVSNLFPDISTFIMTVIGAAASLSYAVPATLNFVYKKYPHFPFYYICYGYIFIILIPCLLVATFLLPMKPFKGLDYYLENDQESDSKNKEQISYTDNDVEMQPSLIQNGNTNVSNNVNKNKATKNIIEGENFHKQSILLFFKVLLSYPSICIIVYFILFNISTVFYGMVTDIYFSYNKSIINIINILMPISFIPCIIFGRFINKYGAAIIIIIMNAFSALMHLTALIKHQAAGLISAFLYMCAASIYTSQIYCFLLNAFPSVVFGKLLGITSLFGGMFSLFCEKLYDNISNSSGNKNDPTTISILLAISFIIMFLPLSILYTRNYEKNIESVNSEKNQIQA
notes: full ORF, synthetic codon-harmonized gene, C-terminal HA tag, cRNA in Xenopus laevis oocytes (pGHJ-HA)

Legend:
Assay in all cases: cells, lysate or membranes
[1] = substrate: N=C(N)NCCC[C@H](N)C(=O)O; assay type: cell-based, Toxoplasma gondii; settings: ND96, pH 7.4, 0-1 mM arginine, labelled compound, Figure 3 legend prints 88±16
[2] = substrate: NCCCC[C@H](N)C(=O)O; assay type: cell-based, Plasmodium berghei; settings: ND96, pH 7.4, 500 μM unlabelled methionine present to lower background, labelled compound
[3] = substrate: N=C(N)NCCC[C@H](N)C(=O)O; assay type: cell-based, Plasmodium berghei; settings: ND96, pH 7.4, 125 μM unlabelled methionine present to lower background, labelled compound

Protein | Km [1] | Km [2] | Km [3]
B1 | 88 ± 15 µM | – | –
B2 | – | 130 ± 26 µM | 41 ± 9 µM
